{"source": "paper PMC10403546", "about": "(2023)", "binders": {"B1": {"name": "bNAb F6 Fab (for SPR) (Fab, V domains shown)", "VH": "QVQLQQWGTGLLKPSETLSLTCAVYGVSLRGYYWTWIRQSPKKGLEWIGEIDEIGRTKYSQSLRSRATLSIDTSKKQFSLRLTSVTAADMATYYCARWRLMMVDEVTRHGMDVWSQGTMVTVSS", "VL": "DIVMTQSPLSLSVAPGEAASISCRSTQSLLNRNGDNYLEWYLRRPGRSPQLLIYLGSERALGVPDRFSGSGSGRDFTLKISRVEAQDVGTYYCLQTRQGAFTFGQGTKLEIK"}}, "target": "X18 gp120", "assay": "SPR"}
{"binder": "B1", "values": [{"measurement": "Kd", "result": 0.0325, "unit": "µM"}]}
